Drawing on the RNAGym collection of RNA variant scans (doi:10.7554/elife.90254), this text covers self-cleavage for 167 variants.

B1: LINE1-full (parent)
chain: UACGUAGGUGGUUUUCCCCUGAUAGUGCUAAGGGGGCCUGGAAGUUUGGACUGGGCAGAGCUCAACACAGCGUGGCAAAGUGGCUGUGGCUAGACUGCCUCUCUGGAUUCCUCGUCACUCAGCAGGGCAUCUCUGAGAGAAAUGCC

The variants in this data set derive from B1. The experiment in a line: self-cleavage, relative activity (ratio to wild type); higher = more cleavage; in vitro, sequencing; the parent is a self-cleaving ribozyme.
With A78G U108G, the self-cleavage was 1.38.
Turning to A78G U108C, the self-cleavage was found to be 1.64.
To A78G U108A belongs 1.41; to G80U A121G, 1.5; to U81A G114C, 2.67.
As to A77G A121G, the self-cleavage was 1.69.
To G80A U87C belongs 0.2.
Consider A78G A124C, for which the self-cleavage was 1.59.
To A78G A124G belongs 0.99.
To A79G C113A belongs 0.14; to A77G U132A, 2.34.
To A77U U96C belongs 0.1; to A77U U96G, 0.27.
Consider A79C A138U, for which the self-cleavage was 2.19.
To A77G C90A belongs 0.03; to A77G U96A, 0.13.
To A79U C101A belongs 1.92; to G80A U112C, 1.43; to A79G C101A, 0.68.
To A78G G126C belongs 1.99.
For A79G G80A, the self-cleavage is 1.89.
For the variant A79U A117G, the self-cleavage was found to be 2.57.
To A79G U143C belongs 1.47; to A77U U134A, 0.57; to A78U U112A, 2.12.
A77C U143C: the self-cleavage was found to be 1.12.
To U81A A121U belongs 1.7.
Consider U81A A121G, for which the self-cleavage is 2.65.
To A79U U115C belongs 1.12; to A79C A141G, 1.96; to A79U G125A, 1.6.
In the case of A77G U104A, the self-cleavage turned out to be 1.64.
To U81A C123U belongs 1.01; to A77G G127U, 2.58; to A79C A121G, 1.67.
In the case of A78G U91C, the self-cleavage stood at 0.29.
In the case of A78G U81G, the self-cleavage is 0.34.
To A78G U81C belongs 1.62; to G80A G86A, 0.05.
To A77G C103A belongs 2.24; to A77G C103U, 1.99.
To G80A A124U belongs 2.27.
In the case of G80A A138G, the self-cleavage stood at 2.06.
To G80U U132A belongs 2.3; to A79G G114A, 1.23.
Turning to A79U A141U, the self-cleavage was found to be 2.36.
To A79G C128A belongs 0.46; to A77U C145A, 1.75.
To A79G A138C belongs 2.4; to G80A A107U, 2.11; to A78G G127A, 1.16.
A77U: the self-cleavage worked out at 1.21.
In the case of A77G, the self-cleavage worked out at 2.12.
To A78G C90U belongs 0.03; to G80U A138G, 1.45.
On to A79U G114A, for which the self-cleavage worked out at 1.79.
To A79U U108C belongs 2.3; to A78U U104C, 0.87.
To A78U U104A belongs 1.8; to A79G U112A, 1.54; to A79G G89U, 0.05.
Regarding G80C C98U, the self-cleavage amounted to 0.26.
In the case of A77G U130C, the self-cleavage turned out to be 2.56.
On to A77U A78G, for which the self-cleavage stood at 0.68.
To A79G C120A belongs 1.39; to U81A U87A, 0.11.
To U81A U87C belongs 0.19; to A78U U100A, 1.13; to A77U G106A, 1.31.
To A77U U115C belongs 1.22.
For the variant A77U C131U, the self-cleavage turned out to be 1.19.
To A77G A138G belongs 2.3; to A78G A79U, 0.52.
To A79G A121U belongs 1.13.
To A78G G93A belongs 0.04; to A78C U112C, 1.94.
G80A G127C: the self-cleavage was found to be 1.6.
Take A78G G83A: the self-cleavage came out at 0.25.
To A79C U85C belongs 0.58.
With A79C G89A, the self-cleavage came out at 0.09.
To A78U A79G belongs 0.74.
For A78U U130C, the self-cleavage worked out at 2.68.
To A79U U143A belongs 1.29; to A79U U143C, 2.02.
Turning to A77G U115A, the self-cleavage was 2.25.
To A77G U115C belongs 2.05; to U81A A124U, 1.78.
As for A79U A107U, the self-cleavage was found to be 1.74.
As to A78G A138G, the self-cleavage worked out at 1.69.
For A78G A138C, the self-cleavage amounted to 1.31.
With A77U G93C, the self-cleavage was determined as 0.03.
To A77U G93U belongs 0.04.
For A78G U119G, the self-cleavage amounted to 1.04.
On to A77G C128G, for which the self-cleavage turned out to be 1.86.
To G80A C128U belongs 1.9; to A77U A140G, 1.37.
To A77U A140U belongs 1.23.
For A78G U100A, the self-cleavage stood at 0.16.
For A78G U100C, the self-cleavage worked out at 2.09.
To U81A A140G belongs 1.95.
As for A78U U143C, the self-cleavage is 1.31.
Consider A77U U109C, for which the self-cleavage was found to be 0.98.
Regarding A79U U102A, the self-cleavage came to 2.23.
To U81A C118U belongs 1.78; to A79G G88U, 0.05; to U81A A94U, 0.6.
To U81A A94G belongs 0.37; to G80U U134A, 1.45.
With A78C A121G, the self-cleavage is 2.59.
Take A78G A117G: the self-cleavage worked out at 0.89.
Regarding A79C A129G, the self-cleavage came out at 1.93.
Regarding A78U A107G, the self-cleavage came to 2.47.
With A78G G114A, the self-cleavage turned out to be 0.83.
To A78G G114C belongs 1.09.
A77U U102C: the self-cleavage turned out to be 1.24.
To A79G G122A belongs 1.31; to A78G U109C, 1.38.
To A78G U87C belongs 0.15; to A78G U87A, 0.1.
As for A77U G89A, the self-cleavage was 0.06.
As for A79U U112C, the self-cleavage is 1.95.
To U81A U85C belongs 0.16; to A78U U96A, 0.07.
As for G80U A107G, the self-cleavage came to 0.94.
To G80A G88U belongs 0.15; to G80A U102C, 1.92; to U81A C146A, 2.08.
To A77G A117G belongs 2.32.
To A78U A140U belongs 1.72; to A77G U100A, 1.93.
As to A78G G80A, the self-cleavage turned out to be 2.49.
A79G A94G: the self-cleavage is 0.35.
Regarding A79G U119G, the self-cleavage is 1.31.
To A79G U119C belongs 1.48.
To A79G G86U belongs 0.1; to U81A A107G, 1.84; to A77U A92U, 0.63.
To A77U A92G belongs 0.05.
For A78U A136C, the self-cleavage was determined as 2.73.
To A79G U130A belongs 1.09; to A78G G106A, 1.45; to A78G U102C, 1.53.
In the case of A78G U102G, the self-cleavage amounted to 0.2.
Turning to A78U A117C, the self-cleavage is 2.72.
To A78U A117G belongs 2.93; to A77U G127A, 1.48.
As for A77U C110U, the self-cleavage amounted to 0.94.
As for A79G G83U, the self-cleavage came out at 0.2.
To A78G C146U belongs 1.06; to A79U U91C, 1.04; to A78G G144A, 1.3.
To A78G U115C belongs 1.51.
Consider A78G U104C, for which the self-cleavage came to 1.82.
On to A77G G89A, for which the self-cleavage came to 0.03.
A77G G88A: the self-cleavage is 0.09.
For A77G U109G, the self-cleavage came out at 0.
With A79G U109A, the self-cleavage came out at 1.19.
To A79G U109C belongs 1.26; to A79G U115A, 1.4.
To G80C A121G belongs 1.18.
Turning to A79G G125C, the self-cleavage came to 1.28.
Turning to A79G A142U, the self-cleavage is 2.04.
To A79G U134C belongs 1.25.
To A79G U134G belongs 0.57; to A78U U119C, 2.05; to A77C U132C, 1.19.
As for A77G A79G, the self-cleavage was 0.95.
